Laboratory results reported in patent US20210198377A1 (XDCEXPLORER SHANGHAI, published 2021).

B1: 103E2E9C2-MMAF (antibody, DAR 8, V domains shown)
VH: EVQLQQSGPVLVKPGASVKMSCEASGYSFIDYYMSWVKQSRGRSLEWIGVFNPYSGEIIYNQKFKGKATLTVDKSSSTAYMELSSLTSEDSGVYSCARLRISYYAIDYWGQGTSVAVSS
VL: ENVLTQSPAIMSASPGEKVTMTCRATSSVSSGHFHWYQQKSGASPKVWIYSTSNLASGVPARFSGSGSGTSFSLTISSVEAEDVATYFCQQYSGYPLTFGGGTKLEIK
modifications: MC-MMAF on cysteines after TCEP reduction, sites not stated
B2: 99E12C7H1-MMAF (antibody, DAR 8, V domains shown)
VH: QIQLVQSGPELKKPGETVKISCKPSGYTFTAYGLSWVKQAPGQGFQWMGWINTYSGVPTYTDDFKGRFAFSLETSAGTASLQITNLKNEDTATYFCARSSIPPFEYWGPGTTLTVSS
VL: SFVMTQSPKFLLVSVGDRVTITCKASQSVSNDVAWYQQKPGQPPRVLIYFASNRYTGVPDRFTGSGYGTDFTFTISTVQAEDLALYFCQQDYSSPWTFGGGTKLEIK
modifications: MC-MMAF on cysteines after TCEP reduction, sites not stated
B3: Chimeric Antibody 12B12-MMAF (antibody, human IgG1, DAR 3, V domains shown)
VH: DVQLVESGGGLVQPGGSRKLSCAASGFTFSNFGMHWVRQAPEKGLEWVAYISSGSTSFYYADTVKGRFTISRDNPKNTLFLQMTSLRSEDTAMYYCSRTNSLLRGFFDAWGAGTTVTVSS
VL: DIVLTQSPASLAVSLGQRATISCRASQSVSSSSYTYLHWYQQKPGQPPKLLIKSASNLESGVPARFSGTGSGTDFTLNIHPVEEEDTATYYCQHSWEIPLTFGAGTKLELK
modifications: MC-MMAF on cysteines after TCEP reduction, sites not stated
B4: Chimeric Antibody 36A10-MMAF (antibody, human IgG1, DAR 3, V domains shown)
VH: DVQLQESGPGMVKPSQSLSLTCTVTGYSITSGYDWHWIRHFPGNKLEWMGYISYSGNTNYNPSLKSRISITHNTSKNHFFLRLNSVTTEDTATYYCARGYGNWDAMDYWGQGTSVTVSS
VL: DIVMTQSQKFMSTSVGDRVSVTCKASQIVDTNVAWYQQKPGQSPKALISSASYRYSGVPDRFTGSGSGTDFTLTISNVQSEDLAEYFCQQYNSYPLTFGAGTKLELT
modifications: MC-MMAF on cysteines after TCEP reduction, sites not stated
B5: Chimeric Antibody 5G4-MMAF (antibody, human IgG1, DAR 3, V domains shown)
VH: EVQLVESGGDLVQPGGSLKLFCAASGFTFSTYGLSWVRQTPDKRLELVATITNNDGSAYYPDSVKGRFTISRDKAKNTLFLQMTSLKSEDTAMYYCARETGFGSSYLFDYWGQGTLVTVSA
VL: NIVMTQTPKFLLVSAGDRVTITCKASQSVSNDVAWYQQKPGQSPKLLIYFATNRYTGVPNRFTGSGYGTEFTFTISSVQAEDLAVYFCQQDYSSPTFGGGTKLEIK
modifications: MC-MMAF on cysteines after TCEP reduction, sites not stated
B6: Chimeric Antibody 39A11-MMAF (antibody, human IgG1, DAR 3, V domains shown)
VH: QVQLQQSGAELMKPGASMRLSCKATGYTFTGYWLEWIKRRPGHGLEWIGEILPGRGSTNYNEKFKGKATFTAETSSNTAYMQLTSLTTEDSAIYYCARGGRDFDNWGQGTTLTVSS
VL: DIQMTQSTSSLSASLGDRVTISCSASQGINNHLNWYQQKPDGTVKLLIYYTSSLHSGVPSRFSGSGSGTDYSLTISNLEPEDIAIYYCQQFSKLPYTFGGGTKVEMK
modifications: MC-MMAF on cysteines after TCEP reduction, sites not stated
B7: Chimeric Antibody 28D4-MMAF (antibody, human IgG1, DAR 3, V domains shown)
VH: DVQLVESGGGLVRPGGSLKLSCAASGFTFSNYVMSWARQSPEKRLEWVAEISTGGSHTYYSDTVTGRFTISRDNAKKALYLEMSSLRSEDTAIYYCIMFYYGSSYSMDYWGQGTSVTVSS
VL: DIQMTQSTSSLSASLGDRITISCRASQDIRNYLNWYQQKPDGTVKLLIYHTSRLHSGVPSRFSGSGSGTDYSLTISNLEQEDIATYFCQQGDTLPLTFGAGTRLELK
modifications: MC-MMAF on cysteines after TCEP reduction, sites not stated
B8: Chimeric Antibody 12B12-MMAE (antibody, human IgG1, DAR about 3, V domains shown)
VH: B3 VH
VL: B3 VL
modifications: MC-VC-PAB-MMAE on cysteines after TCEP reduction, sites not stated
B9: Chimeric Antibody 12B12-DM1 (antibody, human IgG1, DAR about 3, V domains shown)
VH: B3 VH
VL: B3 VL
modifications: SMCC-DM1, sites not stated
B10: Chimeric Antibody 28D4-MMAE (antibody, human IgG1, DAR about 3, V domains shown)
VH: B7 VH
VL: B7 VL
modifications: MC-VC-PAB-MMAE on cysteines after TCEP reduction, sites not stated
B11: Chimeric Antibody 28D4-DM1 (antibody, human IgG1, DAR about 3, V domains shown)
VH: B7 VH
VL: B7 VL
modifications: SMCC-DM1, sites not stated
B12: Chimeric Antibody 12B12 (antibody, V domains shown)
VH: B3 VH
VL: B3 VL
B13: Chimeric Antibody 28D4 (antibody, V domains shown)
VH: B7 VH
VL: B7 VL

target: T1, human TPBG (full length, on cells) (human, UniProt Q13641 32-420); test: cell-based or functional assay
T1 sequence (looked up): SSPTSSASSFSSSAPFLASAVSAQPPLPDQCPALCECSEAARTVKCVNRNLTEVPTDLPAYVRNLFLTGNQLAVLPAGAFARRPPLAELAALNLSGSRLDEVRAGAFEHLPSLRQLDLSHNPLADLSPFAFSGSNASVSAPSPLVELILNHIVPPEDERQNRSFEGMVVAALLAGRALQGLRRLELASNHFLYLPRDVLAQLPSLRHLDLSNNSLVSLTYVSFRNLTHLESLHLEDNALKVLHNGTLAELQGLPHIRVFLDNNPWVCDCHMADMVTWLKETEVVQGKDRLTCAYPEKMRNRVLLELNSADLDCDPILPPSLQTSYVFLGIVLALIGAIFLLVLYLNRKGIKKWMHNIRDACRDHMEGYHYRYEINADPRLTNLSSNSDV

Binder	EC50 of cytotoxicity on TPBG-positive NCI-H1568 cells (CellTiter-Glo) [nM]
B1	0.135
B2	0.844

target: T1, human TPBG (full length, on cells); test: cell-based or functional assay; remark: another data set of the same source

Binder	IC50 of cytotoxicity on TPBG-positive NCI-H1299 cells (CellTiter-Glo) [nM]
B3	0.13
B4	0.7
B5	87.3
B6	4.3
B7	0.21

target: T1, human TPBG (full length, on cells); test: cell-based or functional assay; remark: another data set of the same source

Binder	IC50 of cytotoxicity on TPBG-positive NCI-H1299 cells (CellTiter-Glo) [nM]	IC50 of cytotoxicity on TPBG-positive NCI-H1568 cells (CellTiter-Glo) [nM]
B3	0.04	0.025
B8	> 100	> 100
B9	10.4	1.27
B7	0.132	0.066
B10	369	> 100
B11	6.08	2.51

target: T1, human TPBG (full length, on cells); test: cell-based or functional assay; remark: another data set of the same source

Binder	IC50 of cytotoxicity on recombinant 293-hTPBG cells (CellTiter-Glo) [nM]
B3	0.001
B8	0.033
B12	13.6
B9	0.154
B7	0.024
B10	0.08
B13	1.14
B11	0.406
